This is an account of results in the nanobody polyreactivity screen of Harvey et al. (2022).

This data set can be described thus: yeast display, Sf9 membrane polyspecificity reagent, FACS + sequencing; frameworks hold sequencing errors. The procedure, abridged: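 Using colony PCR, genes from sorted yeast display clones were amplified, then sequenced on MiSeq at 2 × 250 and filtered by CDR length. The clones had been stained with 10% biotinylated, detergent-solubilized Sf9 membrane reagent for 1 hour at 4 °C and sorted by FACS into low and high (top ~1%) gates on anti-HA and streptavidin fluorescence. Polyreactivity labels come from the gate of origin.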
“QVQLVESGGGLVQAGGSLRLSCAASGRTFTRNAMGWYRQAPGKERELVAAISAGGTRTYYADSVKGRFTISRDNAKNTVYLQMNSLIPEDTAVYYCAKPIAPAPNAYPAYDYWGQGTQVTVSS”: the “polyreactivity (PSR sort gate)” value is “high polyreactivity”.

For the sequence “QVQLVESGGGLVQAGGSLRLSCAASGRTFTRYAMGWYRQAPGKEREFVAAITTRGGSTYYADSVKGRFTISRDNAKNTVYLQMNSLKPEDTAVYYCAADYYYVQVLYDLGLDYWGQGTQVTVSS”, the “polyreactivity (PSR sort gate)” value is “high polyreactivity”.

“QVQLVESGGGLVQAGGSLRLSCAASGRTFTRYAMGWYRQAPGKERELVAAISLSSGRTYYADSVKGRFTISRDNAKNTVYLQMNSLKPEDTAVYYCAVRSYVVPGKGFGYWGQGTQVTVSS”: the “polyreactivity (PSR sort gate)” value is listed as “high polyreactivity”.

On to “QVQLVESGGGLVQAGGSLRLSCAASGRTFTRYTMGWYRQAPGKERELVAAISSGGSTTYADSVKGRFTISRDNAKNTVYLQMNSLKPEDTAVYYCAAGLVYRGYRRDYWGQGTQVTVSS”, for which the “polyreactivity (PSR sort gate)” value is “low polyreactivity”.

For “QVQLVESGGGLVQAGGSLRLSCAASGRTFTRYTMGWYRQAPGKERELVAGITRSGGSTYYADSVKGRFTISRDNAKNTVYLQMNSLKPEDTAVYYCAARLSGRYDSQDNYWGQGTQVTVSS”, the “polyreactivity (PSR sort gate)” value is recorded as “high polyreactivity”.

For the sequence “QVQLVESGGGLVQAGGSLRLSCAASGRTFTSNAMGWYRQAPGKEREFVAAITRSTGSTNYADSVKGRFTISRDNAKNTVYLQMNSLKPEDTAVYYCNAYLYYKGRYSRQYYYWGQGTQVTVSS”, the “polyreactivity (PSR sort gate)” value is recorded as “high polyreactivity”.

Take “QVQLVESGGGLVQAGGSLRLSCAASGRTFTSNAMGWYRQAPGKESELVAVITTSGDRTFYADSVKGRFTISRDNAKNTVYLQMNSLKPEDTAVYYCAADVRLTRGFDYWVQGTQVTVSS”: the “polyreactivity (PSR sort gate)” value is listed as “high polyreactivity”.

On to “QVQLVESGGGLVQAGGSLRLSCAASGRTFTSYAMGSYRQAPGKERELVAVITRRGGSTSYADSVKGRFTISRDNAKNTVYLQMNSLKPEDTAVYYCAAKRTWPDVNYYYWGQGTQVTVSS”, for which the “polyreactivity (PSR sort gate)” value is “high polyreactivity”.

Turning to “QVQLVESGGGLVQAGGSLRLSCAASGRTFTSYAMGWYRQAPGKERELVATISTGGSTNYADSVKGRFTISRDNAKNTVYFQMNSLKPEDTAVYYCAAQVDGKRQYYRYDYWGQGTQVTVSS”, the “polyreactivity (PSR sort gate)” value is “low polyreactivity”.

For the sequence “QVQLVESGGGLVQAGGSLRLSCAASGRTFTSYAMGWYRQAPGKERELVAVITWRGVSTYYADSVKGRFTISRDNAKNTVYLQMNSLKPEDTAVYYCAARRPGYYPYKGFDYWGQGTQVTVSS”, the “polyreactivity (PSR sort gate)” value is recorded as “high polyreactivity”.

Turning to “QVQLVESGGGLVQAGGSLRLSCAASGRTFTSYVMGWYIQAPGKERELVAAITRGGRSYYADSVKGRFTISRDNAKKTVYLQMNSLTPEDTAVYYCGARYSVSYNYWGQGTQVTVSS”, the “polyreactivity (PSR sort gate)” value is “high polyreactivity”.

As to “QVQLVESGGGLVQAGGSLRLSCAASGRTFTTNAMGWYRQAPGKERELVAAISRRGGSTYYADSVKGRFTISRDNAKNTVYLQMNSLKPEDTAVYYCYAHLWIRGYDYWGQGTQVTVSS”, the “polyreactivity (PSR sort gate)” value is recorded as “high polyreactivity”.

Consider “QVQLVESGGGLVQAGGSLRLSCAASGRTFTTNAMGWYRQAPGKERELVAAITIGDDTYYADSVKGRFTISRDNAKNTVYLQMNSLKPEDTAVYYCNVDGRSDGDDYWGQGTQVTVSS”, for which the “polyreactivity (PSR sort gate)” value is reported as “low polyreactivity”.

As for “QVQLVESGGGLVQAGGSLRLSCAASGRTFTTYAMGWSRQAPGKERELVAAISSGGSTHYADSVKGRFTISRDNAKYTVYLQMNSLKPEDTAVYYCAADKYYYRTSGQEMDYWGQGTQVTVSS”, the “polyreactivity (PSR sort gate)” value is “high polyreactivity”.

For the sequence “QVQLVESGGGLVQAGGSLRLSCAASGRTFTTYTMGWYRQAPGKERELVASINYRGGRTYYADSVKGRFTISRDNAKNTVYLQMNSLKPEDTAVYYCAKRRYYRRRQYYHYDYWGQGTQVTVSS”, the “polyreactivity (PSR sort gate)” value was “high polyreactivity”.

Consider “QVQLVESGGGLVQAGGSLRLSCAASGRTFTVYAMGWYRLAPGKERELVAAISSGGITNYADSVKGRFTISRDNAKNTVYLQMNSLKPEDTAVYYCNTKSGKARYEFGYWGQGTQVTLSS”, for which the “polyreactivity (PSR sort gate)” value was “low polyreactivity”.

In the case of “QVQLVESGGGLVQAGGSLRLSCAASGRTFTVYAMGWYRQAPGKEREFVAAITERGGSTYYADSVKGRFTISRDNAKNTVYLQMNSLKPEDTAVYYCAAVYYWRPGWYVRFDYWGQGTQVTVSS”, the “polyreactivity (PSR sort gate)” value is “low polyreactivity”.

As for “QVQLVESGGGLVQAGGSLRLSCAASGRTFTVYAMGWYRQAPGKERELVAAISSGGITYYADSVKGRFTISRDNAKNTVYLQMNSLKPEDTAVYYCNTKSGKARYEFGYWGQGTQVTVSS”, the “polyreactivity (PSR sort gate)” value is given as “low polyreactivity”.

As for “QVQLVESGGGLVQAGGSLRLSCAASGRTFTWNVMGWYRQAPGKERELVAAITTDDRTYADSVKGRFTISRDNAKNTVYLQMNILKPEDTAVYYCATVVAWSSRPVGEDYWGQGTQVTVSS”, the “polyreactivity (PSR sort gate)” value is “low polyreactivity”.

Consider “QVQLVESGGGLVQAGGSLRLSCAASGRTFTWYAMGWYRQAPGKEREFVAAISFSGGSTYYADSVKGRFTISRDYAKNTVFLQMNSLKPEDTAVYYCARPSGDAWEGPRMDYWGQGTQVTVSS”, for which the “polyreactivity (PSR sort gate)” value is on record as “low polyreactivity”.

Consider “QVQLVESGGGLVQAGGSLRLSCAASGRTFTWYAMGWYRQAPGKERELVAAISFSGGSTYYADSVKGRFTISRDNAKNTVYLQMNSLKPEDTAVYYCARPSGDAWEGPRMDYWGQGTQVTVSS”, for which the “polyreactivity (PSR sort gate)” value is recorded as “low polyreactivity”.

For “QVQLVESGGGLVQAGGSLRLSCAASGRTFTYNTMGWYRQAPGKERELVAAISSRGGRTYYADSVKGRFTISRDNAKNTVYLQMHSLKAEDTAVYYCAVYGYYSLSHWDYDYWAQGTQVTVSS”, the “polyreactivity (PSR sort gate)” value is “high polyreactivity”.

“QVQLVESGGGLVQAGGSLRLSCAASGRTFTYNVMGWYRQAPGKERELVAAITSGGSTYYADSVKGRFTISRDNAKNTVYLQMNSLKPEDTAVYYGAARGYSYKWDNRYDYWGQGTQVTVSS”: the “polyreactivity (PSR sort gate)” value is “high polyreactivity”.

In the case of “QVQLVESGGGLVQAGGSLRLSCAASGRTFTYYAMGWSRQAPGKERELVAGISSGGGSTYYADSVKGRFTISRDNAKNSVYFQMNILNPEDTAVYYCATAKRQGCYSEYDYWGQGTQVTVSS”, the “polyreactivity (PSR sort gate)” value is reported as “high polyreactivity”.

In the case of “QVQLVESGGGLVQAGGSLRLSCAASGRTFTYYAMGWYRPAPGKERELVARITTDGSSTYYADSVKGRFTISRDNAKNTVYLQMNSLKPEDTAVYYCAADFQYAIHTDMDYWGQGTQVTVSS”, the “polyreactivity (PSR sort gate)” value is “high polyreactivity”.

Turning to “QVQLVESGGGLVQAGGSLRLSCAASGRTFTYYAMGWYRQAPGKEREFVASISLSGGRTYYADSVKGRFTISRDNAKNTVYLQMNSLKPEDTAVYYCNAYYPRVHRSDYWGQGTQVTVSS”, the “polyreactivity (PSR sort gate)” value was “low polyreactivity”.

For the sequence “QVQLVESGGGLVQAGGSLRLSCAASGRTFTYYGMGWYRQAPGKERELVAAISGGGDTNYADSVKGRFTISRDNAKNTVYLQMNSLKPEDTAGYYCAAKRRYYWDYWFYEYDYWGQGTQVTVSS”, the “polyreactivity (PSR sort gate)” value was “low polyreactivity”.

Regarding “QVQLVESGGGLVQAGGSLRLSCAASGRTFVANAMGWYRQAPGKERELVAAISSSGGSTYYADSVKGRFTISRDNAKNTVYLQMNSLKPEDTAVYYCNRVGVYYRLYPYYYWGQGTQVTVSS”, the “polyreactivity (PSR sort gate)” value is given as “high polyreactivity”.

For the sequence “QVQLVESGGGLVQAGGSLRLSCAASGRTFVANDMAWYTHAPGKERELFAAISYSGGSTYYADSVKGRFTISRDNAKNTVYLQMNSLKPEDTEVYYCNAYYYGGVRKQHGYWGQVTQVTVSS”, the “polyreactivity (PSR sort gate)” value is “low polyreactivity”.

Take “QVQLVESGGGLVQAGGSLRLSCAASGRTFVDYDMGWYRQAPGKERELVADINSGGSTYYADSVKGRFTISRDNAKNTVYLQMNSLKPEDTAVYYCAARPYYWGQGTQVTVSS”: the “polyreactivity (PSR sort gate)” value is on record as “high polyreactivity”.

Turning to “QVQLVESGGGLVQAGGSLRLSCAASGRTFVGNAMGWYRQAPGKERELVAAISGRGGSTKYADSVKGRFTISRDYAKNTVYLQMNSLKPEYTAVYYCNAPRNYYKNRAYEYWGQGTKVTVSS”, the “polyreactivity (PSR sort gate)” value is on record as “high polyreactivity”.

Consider “QVQLVESGGGLVQAGGSLRLSCAASGRTFVGYAMGWYRQAPGKERELVAAISRTGGSTYYADSVKGRFTISRDNAKNTVYLQMNSLKPEDTAVYYCAASPKRVLRESGDYWGQGTQVTVSS”, for which the “polyreactivity (PSR sort gate)” value is listed as “high polyreactivity”.

Take “QVQLVESGGGLVQAGGSLRLSCAASGRTFVGYTMGWYRQAPGKERELVAAIDLSDGSTSYADSVKGRFTISRDNAKNTVYFQMNSLKPEDTAVYYCAKTWANVYAGAHDYWGQGTQVTVSS”: the “polyreactivity (PSR sort gate)” value is listed as “low polyreactivity”.

Take “QVQLVESGGGLVQAGGSLRLSCAASGRTFVGYTMGWYRQAPGKERELVAAIDLSDGSTSYADSVKGRFTISRDNAKNTVYLQMNSLIPEDTAVYYCAKTWANVYAGAHDYWGLGTQVTVSS”: the “polyreactivity (PSR sort gate)” value is listed as “low polyreactivity”.

Turning to “QVQLVESGGGLVQAGGSLRLSCAASGRTFVHYTMGWYRQAPGKERELVATISTSGGSTSYADSVKGRFTISRDNAKNTVYLQMNSLIPEDTAVYYCAARWYFPDRVKYDYWGQGTQVTVSS”, the “polyreactivity (PSR sort gate)” value is reported as “low polyreactivity”.

For “QVQLVESGGGLVQAGGSLRLSCAASGRTFVIYAMGWYRQAPGKEREFVAAISRSGGSTYYADSVKGRFTISRDNAKNTVYLQMNSLKPEDTAVYYCNTRTPYWVKSDYWGQGTQVTVSS”, the “polyreactivity (PSR sort gate)” value is given as “low polyreactivity”.

“QVQLVESGGGLVQAGGSLRLSCAASGRTFVIYAMGWYRQAPGKEREFVPAISKGGGSTYYADSVKGRFTISRDNAKNTVYLQMNSLKPEDTAVYYCAAGYGTYYQSSRFDYWGQGTQVTVSS”: the “polyreactivity (PSR sort gate)” value was “high polyreactivity”.

In the case of “QVQLVESGGGLVQAGGSLRLSCAASGRTFVLNAMGWYRQAPGKERELVAAITLGGGSTYADSVKGRLTISRDNAKNTVYLQMNSLKPEDTEVYYCNKASGVFYGHLDYWGQGTQVTVSS”, the “polyreactivity (PSR sort gate)” value is reported as “low polyreactivity”.

As for “QVQLVESGGGLVQAGGSLRLSCAASGRTFVLYAMGWYRQAPGKERELVASITSGGSTNYADSVKGRFTISRDNAKNTVYLQMNSLKPEDTAVYYCNADLDVYLWFIFTVYQDDYDYWGQGTQVTVSS”, the “polyreactivity (PSR sort gate)” value is “high polyreactivity”.

Regarding “QVQLVESGGGLVQAGGSLRLSCAASGRTFVPYAMGWYRQAPGKERELVAAINSGGSTYYADSVKGRFTISRDNAKNTVYLQMNSLKPEDTAVYYCAAEYWNSRFSYAYGYWGQGTQVTVSS”, the “polyreactivity (PSR sort gate)” value is “high polyreactivity”.

On to “QVQLVESGGGLVQAGGSLRLSCAASGRTFVPYAMGWYRQAPGKERELVAAISYSGDSTYYADSVKGRFTISRDNAKNTVYLQMNSLKPEDTAVYYCAARGGNPFYYWGQGTQVTVSS”, for which the “polyreactivity (PSR sort gate)” value was “low polyreactivity”.
